Test results reported in publication PMC5577506, “Intrinsic disorder in the partitioning protein KorB persists after co-operative complex formation with operator DNA and KorA” (Biochemical Journal, 2017).
One block for each binder: values may come before it.

How the values were obtained:
(NΔ150)KorB = (NΔ150)KorB (Escherichia coli (expression host); …, UniProt P07674 151-358, del1-150); assay: SAXS, SANS; complex mass consistent with protein + DNA (67.5 kDa calculated); Buffer, salt, pH and temperature not given in the material; NMR at 800 MHz; SANS in 0, 65 or 100% D2O; settings: protein: recombinant; tags: His-tag; chain copies: 2; blunt (only one strand printed; complement implied)
KorB [1] = biological target: T1, KorB (Escherichia coli (expression host); …, UniProt P07674 1-358); assay: NMR (15N-1H TROSY titration), SAXS, SANS; KorB dimer:OB 1:1; DBD and N-terminal peaks lost, CTD unaffected; Buffer, salt, pH and temperature not given in the material; NMR at 800 MHz; SANS in 0, 65 or 100% D2O; settings: protein: recombinant; tags: His-tag; chain copies: 2; blunt (only one strand printed; complement implied)
KorA = KorA (Escherichia coli (expression host); …, UniProt P03052 1-101); assay: CD; 1 equivalent KorA; change at 280 nm; Buffer, salt, pH and temperature not given in the material; NMR at 800 MHz; SANS in 0, 65 or 100% D2O; settings: protein: recombinant; tags: none; chain copies: 2; blunt (only one strand printed; complement implied)
KorB [2] = biological target: T1, KorB; assay: CD; 1 equivalent KorB; change at 280 nm; Buffer, salt, pH and temperature not given in the material; NMR at 800 MHz; SANS in 0, 65 or 100% D2O; settings: protein: recombinant; tags: His-tag; chain copies: 2; blunt (only one strand printed; complement implied)
KorB;KorA = KorB;KorA (Escherichia coli (expression host); …, UniProt P07674;P03052 1-358;1-101, |); assay: NMR (15N-1H TROSY), CD, SANS; ternary KorA/KorB/OAOB complex; Buffer, salt, pH and temperature not given in the material; NMR at 800 MHz; SANS in 0, 65 or 100% D2O; settings: protein: recombinant;recombinant; tags: His-tag;none; chain copies: 2;2; blunt (only one strand printed; complement implied)
[3] = biological target: T2, KorB (ParB family protein from the IncP1 plasmid RK2) (plasmid RK2 (IncP1), UniProt P07674 1-358); assay: NMR titration; ^15N-^1H TROSY at 800 MHz of ^15N/^2D KorB (~0.1 mM dimer) titrated with unlabelled KorA (1 and 2 equivalents); 10 mM sodium phosphate pH 7.0, 100 mM NaCl, 0.1 mM EDTA, 30°C; settings: both partners purified
T2 construct: KorB of plasmid RK2 (IncP1), 358 amino acid residues per subunit, homodimer; also called WT KorB; ^1H-KorB; source: E. coli BL21(λDE3), His-tagged fusion, purified as described previously [21]; also partially deuterated (~70% D2O M9 medium) and ^15N-labelled
T2 sequence (looked up): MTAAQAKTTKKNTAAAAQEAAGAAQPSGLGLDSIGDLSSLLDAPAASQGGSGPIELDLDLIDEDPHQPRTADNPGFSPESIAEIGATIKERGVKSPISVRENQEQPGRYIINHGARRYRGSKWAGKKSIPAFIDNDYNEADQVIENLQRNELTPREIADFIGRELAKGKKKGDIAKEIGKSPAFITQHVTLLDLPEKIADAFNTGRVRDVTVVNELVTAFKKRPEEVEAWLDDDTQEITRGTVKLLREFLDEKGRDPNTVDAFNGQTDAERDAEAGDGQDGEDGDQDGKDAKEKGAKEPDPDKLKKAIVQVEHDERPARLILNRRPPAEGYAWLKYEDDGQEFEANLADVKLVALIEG

B1: OB (dsDNA)
DNA 1: CGAGAATTTTAGCGGCTAAAAAGGGC
DNA 2: GCCCTTTTTAGCCGCTAAAATTCTCG
binding result ((NΔ150)KorB): binds
binding result (KorB [1]): binds

B2: OAOB (dsDNA)
DNA 1: GGACGAGTTTTAGCGGCTAAAGGTGTTGACGTGCGAGAAATGTTTAGCTAAACTTCG
DNA 2: CGAAGTTTAGCTAAACATTTCTCGCACGTCAACACCTTTAGCCGCTAAAACTCGTCC
binding result (KorA): binds
binding result (KorB [2]): binds
binding result (KorB;KorA): binds

stoichiometry N [3]: 2 KorA dimers per KorB dimer
B3: KorA (repressor from the plasmid RK2) (natural protein, plasmid RK2 (IncP1), UniProt P03052 1-101, looked up)
chain: MKKRLTESQFQEAIQGLEVGQQTIEIARGVLVDGKPQATFATSLGLTRGAVSQAVHRVWAAFEDKNLPEGYARVTAVLPEHQAYIVRKWEADAKKKQETKR
notes: KorA of plasmid RK2; used as a dimer; the domain scheme runs from residue 1 to 101; also called ^1H-KorA; ^2D-KorA; source: E. coli BL21(λDE3), without a tag, purified as before [14]
